The supplement of paper PMC10567573

B1: BCL2L13 (parent)
chain: YIIQQGGWGTVFSLESEEEEYPGI
B2: TSPAN10 (parent)
chain: EGCGPPLRRWLRANLAASGGYAIA

Variants of: B1
Assay: protein stability index of a GFP-peptide fusion (GPS, HEK-293T) (PSI 1-6); higher = more stable
Details: c terminus: a fixed tail appended
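Also: lentivirally expressed fusions sorted by FACS into six bins by GFP to DsRed ratio, PSI derived from sequencing read proportions per bin multiplied by bin number.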

Protein stability index, by site and new letter:
Y21: D 2.22; T 1.21; I 1.59; N 1.74; E 1.64; M 2.26; H 2.53; R 1.75; G 2.02; Q 2.33; L 2.11; S 1.14
G7: E 1.74; D 1.87; C 1.72; P 1.58; Q 2.85; Y 3.6; R 1.73; H 2.14; N 1.05; S 1.46; K 2.06; L 1.82; A 2.35; I 2.58; T 1.45
Y1: K 3.39; D 3.47; F 1.18; T 3.75; A 3.38; E 2.86; H 3.19; L 1.87; V 2.57; C 2.47; Q 3.18; P 4.31; G 4.05; R 3.87; I 1.6; N 4.12
P22: A 2; K 2.65; I 3.56; R 1.92; Q 1.47; Y 1.38; V 1.37; T 2.02; D 2.69; H 1.7; N 1.42; S 2.18; M 1.42; L 2.9; E 2.22
W8: T 2.84; K 2.1; M 1.88; Y 2.84; P 2.97; R 2.37; Q 3.93; H 2.81; N 3.09; D 2.56; F 2.83; E 3.31; L 1.99; A 2.02; I 1.66; C 2.31; S 3.17; G 2.58; V 1.53
T10: M 1.4; F 2.42; P 1.07; H 1.11; D 1.31; S 2.34; R 1.6; N 2.35; E 1.17; I 3.06
I24: G 2.85; V 1.78; N 2.39; F 2.58; L 1.82; T 1.1; H 1.63; D 1.54; K 1.75; S 1.23; Y 1.22; M 1.53; C 1.34; P 2.14; A 1.39
G9: R 1.06; I 3.4; L 3.44; V 3.32; C 3.36; P 1.09; T 3; K 1.7; Q 1.81; S 1.68; A 1.62; E 2.65; D 1.13; H 1.42
G6: S 1.73; V 1.23; H 1.48; E 2.06; P 2.12; D 1.42; T 2.31; N 2.15; R 2.02; K 2.9; W 1.14; F 1.97
I2: H 2.9; G 2.95; L 2.76; Q 1.98; R 2.42; W 2.38; Y 2.46; D 3.9; M 2.86; E 5.34; F 2.68; T 2.75; A 1.96; K 3.31
E20: A 1.13; M 1.31; R 2.98; N 2.17; P 2.87; G 1.51; C 1.91; S 1.82; K 2.15; H 2.46; D 1.71; I 3.47
L14: T 2.2; Y 1.84; Q 1.78; R 1.87; P 1.87; W 1.06; D 2.21; K 1.5; V 1.98; I 1.76; S 2.23; E 2.57; H 1
E19: Y 2.41; Q 3.34; S 2.39; H 2.29; T 2.34; R 1.93; L 2.41; D 1.19; W 2.31; C 3.36; P 1.82
G23: E 2.43; K 2.61; F 1.26; T 2.58; D 2.7; P 1.97; R 1.28; Q 1.84; M 2.57; Y 2.18; I 1.76; L 2.01; H 1; A 1.21; N 1.16; V 1.85; W 1.93
Q5: T 1.72; W 2.16; R 1.92; M 1.67; E 1.33; G 1.69; N 1.73
S13: T 1.62; C 1.49; N 3.23; E 1.33; H 1.43; P 1.38; F 2.46; G 1.74; D 2.72; V 2.28; Y 1.71; L 1.24
E17: I 1.76; W 2.52; T 2.81; C 2.77; A 1.23; N 2.31; D 1.19; H 2.65; P 4.07; F 2.7; Y 3.21
I3: H 2.71; A 1.58; P 2.56; S 2.04; E 2.63; F 2.27
V11: P 1.76; Q 1.86; F 2.93; H 2.25; T 1; I 1.78; A 2.12; N 1.98; Y 2.04; G 3.31; W 1.42; D 2.67; L 1.36; R 1.91; K 1.64; S 2.61
F12: N 1.56; L 1.81; H 1.75; R 1.83; K 2.39; D 2.35; I 1.64; V 1.65; P 1.58; T 2.13; A 2.5; M 2.98; S 2.03; Q 1.24; E 2.66
Q4: H 1.2; E 1.4; W 2.88; V 3.01; A 2.19; R 2.35; N 1.58
S16: D 1.76; H 2.01; G 2.38; M 2.68; I 4.26; T 2.25; E 1.59; C 3.01; Y 2.61; A 1.69; F 2.94; K 2.69; V 1.65; N 1.83
E18: P 1.53; Q 2.13; D 1.96; H 1.85; L 1.92; F 2.56; T 1.99; N 2.86; S 2.56
E15: Q 2.31; K 1.27; L 2.57; T 1.67; P 2.02; S 2.81; G 1.82; N 2.34; M 3.49; F 2.92

Variants of: B2
Assay: as above
Details: c terminus: a fixed tail appended

Protein stability index: each site, then its substitutions
E1: C 3.75; P 1.71; S 2.37; M 2.45; R 2.57; N 1.96; T 1.39; A 1.63; K 1.42; Y 1.97; W 2.07; V 1; D 2.06; G 2; I 1.81; Q 1.38; L 1.81
G2: F 2.24; L 1.57; R 2.04; C 1.68; A 2; H 2.07; T 1.83; K 2.32; S 1.6; E 1.97; P 1.85; I 2.15; Q 2.33; N 1; D 1.91
